According to patent US20130116182A1, “Factor VIII B Cell Epitope Variants Having Reduced Immunogenicity” (priority 2009, published 2013):
“Also recorded” adds a separate entry of the source. Values belong to the molecule of their own block, whether it stands above or below them.

How the values were obtained:
[1] = test system: CD4+ T cells; experiment: Staining with peptide-loaded DR0101 tetramers (tetramer guided epitope mapping); type: cell-based, human; settings: for Positive (individual peptide loaded tetramer staining): DR0101 tetramers, severe HA inhibitor subject 56A, day 18
Description: T-cell clones were obtained from blood samples from both brothers by staining CD4+ cells with fluorescent DR0101 tetramers that were loaded with peptide FVIII2194-2213, followed by single-cell sorting and expansion. Clones were expanded by stimulation with irradiated peripheral blood mononuclear cells (PBMCs) from an HLA-mismatched individual plus phytohemagglutinin (Remel, Lenexa, Kans.) in the presence of human IL-2 (Hemagen Diagnostics, Inc., Columbia, Md.). Clonality was confirmed by tetramer staining, multiplex PCR and sequencing of the VDJ region in the PCR products.
(§1) a. Added 1.5 μl PE-labeled tetramers (final concentration 10 μg/ml. b. Mixed by shaking the rack containing the FACS tubes. c. Incubated the cells with tetramer for 1 hr in the 37 C 5% CO2 incubator.
(§2) a. Incubated tubes in the refrigerator for >5 min. b. Made an antibody cocktail consisting of 3.75 μl anti-CD4-APC, 3.75 μl anti-CD3-PerCP, 3.75 μl anti-CD25-FITC per sample. 3.75 ul×50=187.5 ul. c. Added 3.75 μl control antibodies to 75 μl control cells (1 —unstained; 2—anti-CD4-FITC; 3—anti-CD4-PE; 4—anti-CD3-PerCP; 5—anti-CD4-APC). d. Added 11.25 μl antibody cocktail to each sample. e. Incubated all samples at 4 C (put in the refrigerator) for 20 min in the dark.
(§3) a. Added 2 ml cold FACS wash buffer to each tube. b. Centrifuged at 1200 rpm, 10 min, 4 C, low brake in the Beckman Coulter Allegra 6KR centrifuge. c. Decanted the supernatant. d. Resuspended in 200 μl FACS wash buffer. e. Stored tubes in a covered ice container for FACS analysis.
(§4) a. Added 1.5 μl PE-labeled tetramers (final concentration 10 μg/ml). b. Mixed by shaking the rack containing the FACS tubes. c. Incubated the cells with tetramer for 1 hr in the 37 C 5% CO2 incubator.
as §2, with “ul×55=206.25 ul (For the CD25-FITC Ab, I opened a new vial (Lot #E016414)—taking 100 ul from this lot.)” for “ul×50=187.5 ul.”
(§5) a. Added 2 ml cold FACS wash buffer to each tube. b. Centrifuged at 1200 rpm, 10 min, 4 C, low brake in the Beckman Coulter Allegra 6KR centrifuge. c. Decanted the supernatant. d. Resuspended in 250 μl FACS wash buffer. e. Stored tubes in a covered ice container for FACS analysis.

[2] = test system: CD4+ T cells; experiment: Staining with peptide-loaded DR1001 tetramers (tetramer guided epitope mapping); type: cell-based, human; settings: for Positive (individual peptide loaded tetramer staining): DR1001 tetramers, severe HA inhibitor subject 56A, day 18
Procedure: as §1, §2, §3, §4
as §2, with “ul×55=206.25 ul (For the CD25-FITC Ab, I opened a new vial (Lot #E016414)—taking 100 ul from this lot.)” for “ul×50=187.5 ul.”
as §5

[3] = target: HLA-DRB1*0101 (DR0101) (Homo sapiens, UniProt P01903+P01911, A100R/D57E/F55L/F60I/F76Y/I96L/L162R/M171V/P40L/Q125E/R42F/V115G/Y59C); experiment: HLA-DR peptide binding competition assay, DR0101; settings: labels are Arg or Ala substitutions in synthetic peptide FVIII2194-2205
[4] = test system: CD4+ T cells; experiment: Staining with peptide-loaded DR1101 tetramers (tetramer guided epitope mapping); type: cell-based, human
[5] = target: BO2C11 Fab fragment; experiment: SPR kinetic runs at 25 C (kd/ka)
[6] = target: BO2C11 Fab fragment; experiment: SPR at 10-40 C, van't Hoff analysis
[7] = target: BO2C11 Fab fragment; experiment: SPR, BO2C11 Fab on chip, 25 C, 1:1 model
[8] = target: BO2C11 Fab fragment; experiment: SPR at 10-40 C, van't Hoff analysis (KD° from ΔGA°)

Molecule: IKTQGARQKFSSLYISQFII [Mutant C1-13]
- Positive (individual peptide loaded tetramer staining) [1]: no
- Positive (individual peptide loaded tetramer staining) [2]: no

Molecule: QFIIMYSLDGKKWQTYRGNS [Mutant C1-15]
- Positive (individual peptide loaded tetramer staining) [1]: no
- Positive (individual peptide loaded tetramer staining) [2]: no

Molecule: VEDGPTKSDPRCLTRYYSSF [Mutant A2-19]
- Positive (individual peptide loaded tetramer staining) [1]: no
- Positive (individual peptide loaded tetramer staining) [2]: no

- binding to DR0101 [3]: abolished or greatly reduced
Molecule: S2204R: synthetic peptide FVIII2194-2205 with S2204R substitution (SYFTNMFATWRP; UniProt P00451 2213-2224, looked up, fragment S2204R) [Mutant S2204R]

Molecule: TWVHYIAAEEEDWDYAPLVL [FVIII381-400]
- tetramer staining of peptide-stimulated CD4+ T cells ([4]; mild HA subject 41A): high peptide-specific background staining

Molecule: FSWIKVDLLAPMIIHGIKTQ [Mutant C1-11]
- Positive (individual peptide loaded tetramer staining) [1]: no
- Positive (individual peptide loaded tetramer staining) [2]: no

Molecule: CC[C@H](C)[C@H](NC(=O)CNC(=O)[C@H](Cc1c[nH]cn1)NC(=O)[C@@H]1CCCN1C(=O)[C@H](Cc1ccc(O)cc1)NC(=O)[C@@H](NC(=O)[C@H](CC(N)=O)NC(=O)[C@H](Cc1ccc(O)cc1)NC(=O)[C@@H]1CCCN1C(=O)[C@H](CCCNC(=N)N)NC(=O)[C@H](CO)NC(=O)[C@H](C)N)[C@@H](C)CC)C(=O)N[C@H](C(=O)N[C@@H](CC(=O)O)C(=O)N[C@H](C(=O)N[C@@H](CCCNC(=N)N)C(=O)N1CCC[C@H]1C(=O)N[C@@H](CC(C)C)C(=O)N[C@@H](Cc1ccc(O)cc1)C(=O)N[C@@H](CO)C(=O)O)C(C)C)[C@@H](C)O [FVIII469-488]
- tetramer staining of peptide-stimulated CD4+ T cells ([4]; inhibitor subject 1D): Weaker positive staining; also recorded: tetramer-positive

Molecule: KGVKHLKDFPILPGEIFKYK [Mutant A2-16]
- Positive (individual peptide loaded tetramer staining) [1]: no
- Positive (individual peptide loaded tetramer staining) [2]: no

Molecule: SDAQITASSYFTNMFATWSP [Mutant C2-3B]
- Positive (individual peptide loaded tetramer staining) [1]: weak

Molecule: DLNSCSMPLGMESKAISDAQ [Mutant C2-1]
- Positive (individual peptide loaded tetramer staining) [1]: no

Molecule: CC[C@H](C)[C@H](NC(=O)CNC(=O)[C@H](CO)NC(=O)[C@H](CCC(=O)O)NC(=O)[C@H](Cc1c[nH]cn1)NC(=O)[C@H](CCC(N)=O)NC(=O)[C@@H](NC(=O)[C@H](C)NC(=O)[C@H](CCC(=O)O)NC(=O)[C@H](CCCNC(=N)N)NC(=O)[C@@H](NC(=O)[C@H](CCCCN)NC(=O)[C@H](Cc1ccccc1)NC(=O)[C@@H](NC(=O)[C@H](CCC(=O)O)NC(=O)[C@H](CC(=O)O)NC(=O)[C@@H](NC(=O)[C@H](Cc1ccc(O)cc1)NC(=O)[C@H](C)NC(=O)[C@@H](N)CCSC)[C@@H](C)O)[C@@H](C)O)[C@@H](C)O)[C@@H](C)CC)C(=O)O [FVIII429-448]
- tetramer staining of peptide-stimulated CD4+ T cells ([4]; inhibitor subject 1D): Weaker positive staining; also recorded: tetramer-positive

- Kd [5]: 6.1 pM
- TΔSA° [6]: 14 kJ/mol
- Δ(TΔSA°) (against WT-C2) [6]: -40 kJ/mol
- ΔGA° [6]: -63 kJ/mol
- ΔHA° [6]: -49 kJ/mol
- ΔΔGA° (against WT-C2) [6]: 5 kJ/mol
- ΔΔHA° (against WT-C2) [6]: -35 kJ/mol
- Kd [7]: 6.1 pM
- koff [7]: 0.00017 s⁻¹
- kon [7]: 2.8e+07 M⁻¹ s⁻¹
- Kd [8]: 9.1 pM
Molecule: FVIII C2 domain protein L2252A (from UniProt P00451 2189-2351)

Molecule: DPRCLTRYYSSFVNMERDLA [Mutant A2-20]
- Positive (individual peptide loaded tetramer staining) [1]: no
- Positive (individual peptide loaded tetramer staining) [2]: no

Molecule: IFKYKWTVTVEDGPTKSDPR [Mutant A2-18]
- Positive (individual peptide loaded tetramer staining) [1]: yes
- tetramer staining ([1]; loaded on DR0101, subject 56A): Very strong staining
- Positive (individual peptide loaded tetramer staining) [2]: yes
- tetramer staining ([2]; loaded on DR1001, subject 56A): Very strong staining

Molecule: KVFQGNQDSFTPVVNSLDPP [Mutant C2-15]
- Positive (individual peptide loaded tetramer staining) [2]: no

Molecule: FPILPGEIFKYKWTVTVEDG [Mutant A2-17]
- Positive (individual peptide loaded tetramer staining) [1]: no
- Positive (individual peptide loaded tetramer staining) [2]: no

Molecule: SLLTSMYVKEFLISSSQDGH [Mutant C2-11]
- Positive (individual peptide loaded tetramer staining) [2]: no

- Kd [5]: 22 pM
- TΔSA° [6]: 57 kJ/mol
- Δ(TΔSA°) (against WT-C2) [6]: 3 kJ/mol
- ΔGA° [6]: -60 kJ/mol
- ΔHA° [6]: -3 kJ/mol
- ΔΔGA° (against WT-C2) [6]: 8 kJ/mol
- ΔΔHA° (against WT-C2) [6]: 11 kJ/mol
- Kd [7]: 22 pM
- koff [7]: 9.4e-05 s⁻¹
- kon [7]: 4.3e+06 M⁻¹ s⁻¹
- Kd [8]: 30 pM
Molecule: FVIII C2 domain protein S2250A (from UniProt P00451 2189-2351)

- binding to DR0101 [3]: abolished or greatly reduced
Molecule: M2199R: synthetic peptide FVIII2194-2205 with M2199R substitution (SYFTNRFATWSP; UniProt P00451 2213-2224, looked up, variant M2199R) [Mutant M2199R]

Molecule: KFSSLYISQFIIMYSLDGKK [Mutant C1-14]
- Positive (individual peptide loaded tetramer staining) [1]: no
- Positive (individual peptide loaded tetramer staining) [2]: no

- Kd [5]: 9.8 pM
- TΔSA° [6]: 52 kJ/mol
- Δ(TΔSA°) (against WT-C2) [6]: -2 kJ/mol
- ΔGA° [6]: -64 kJ/mol
- ΔHA° [6]: -12 kJ/mol
- ΔΔGA° (against WT-C2) [6]: 4 kJ/mol
- ΔΔHA° (against WT-C2) [6]: 2 kJ/mol
- Kd [7]: 9.8 pM
- koff [7]: 4.3e-05 s⁻¹
- kon [7]: 4.4e+06 M⁻¹ s⁻¹
- Kd [8]: 6.1 pM
Molecule: FVIII C2 domain protein T2197A (from UniProt P00451 2189-2351)

Molecule: SQDGHQWTLFFQNGKVKVFQ [Mutant C2-13]
- Positive (individual peptide loaded tetramer staining) [2]: no

Molecule: KEFLISSSQDGHQWTLFFQN [Mutant C2-12]
- Positive (individual peptide loaded tetramer staining) [2]: no

Molecule: LGMESKAISDAQITASSYFT [Mutant C2-2]
- Positive (individual peptide loaded tetramer staining) [1]: no

Molecule: CSCC[C@H](NC(=O)[C@H](Cc1ccccc1)NC(=O)[C@H](CCCNC(=N)N)NC(=O)[C@@H](NC(=O)[C@H](CCCCN)NC(=O)[C@H](CCCCN)NC(=O)[C@H](Cc1ccc(O)cc1)NC(=O)[C@H](CCCCN)NC(=O)[C@@H](N)CCCNC(=N)N)C(C)C)C(=O)N[C@@H](C)C(=O)N[C@@H](Cc1ccc(O)cc1)C(=O)N[C@H](C(=O)N[C@@H](CC(=O)O)C(=O)N[C@@H](CCC(=O)O)C(=O)N[C@H](C(=O)N[C@@H](Cc1ccccc1)C(=O)N[C@@H](CCCCN)C(=O)N[C@H](C(=O)N[C@@H](CCCNC(=N)N)C(=O)N[C@@H](CCC(=O)O)C(=O)O)[C@@H](C)O)[C@@H](C)O)[C@@H](C)O [FVIII421-440]
- tetramer staining of peptide-stimulated CD4+ T cells ([4]; mild HA subject 41A): weaker positive staining; also recorded: tetramer-positive

Molecule: LAPMIIHGIKTQGARQKFSS [Mutant C1-12]
- Positive (individual peptide loaded tetramer staining) [1]: no
- Positive (individual peptide loaded tetramer staining) [2]: no

- Kd [5]: 6.2 pM
- TΔSA° [6]: 35 kJ/mol
- Δ(TΔSA°) (against WT-C2) [6]: -19 kJ/mol
- ΔGA° [6]: -66 kJ/mol
- ΔHA° [6]: -31 kJ/mol
- ΔΔGA° (against WT-C2) [6]: 2 kJ/mol
- ΔΔHA° (against WT-C2) [6]: -17 kJ/mol
- Kd [7]: 6.2 pM
- koff [7]: 5e-05 s⁻¹
- kon [7]: 8.1e+06 M⁻¹ s⁻¹
- Kd [8]: 2.7 pM
Molecule: FVIII C2 domain protein L2251A (from UniProt P00451 2189-2351)

- binding to DR0101 [3]: abolished or greatly reduced
Molecule: A2201R: synthetic peptide FVIII2194-2205 with A2201R substitution (SYFTNMFRTWSP; UniProt P00451 2213-2224, looked up, fragment A2201R) [Mutant A2201R]

Molecule: LFFQNGKVKVFQGNQDSFTP [Mutant C2-14]
- Positive (individual peptide loaded tetramer staining) [2]: no
